From EP2871189A1, “High-affinity monoclonal anti-strep-tag antibody” (INSTITUT PASTEUR, priority 2013, dated 2015)

Target: Strep-Tag II peptide WSHPQFEK (SEQ ID NO:9)
Test: ELISA assay after Friguet et al 1985

B1: monoclonal antibody C23.21 (antibody, V domains shown)
VH: EVQLEQSGPELVKPGASVKMSCKASGYTFTNYYMKWVKQSHGKSLEWIGDLNPNNGDTFYNQKFKGKATLTVDKSSNTAYMQLNSLTSEDSAVYYCARTGRYEENAMDYWGQGTSVTVSS
VL: ELVMTQSPASLAVSLGQRATISCRASESVDSYGKSFMHWYQLKPGQPPKLLIYRASNLESGVPARFSGSGSRTDFTLTIDPVEADDAATYYCQQNNEDPWTFGGGTKLEIK
B1 showed a Kd of 0.14 nM.
